Data on 1 protein can be found in patent US20210285024.

The target in series [1] is tubulin purified from Spodoptera Frugiperda Sf9 cells (fully tyrosinated; used as purified tubulin or polymerised microtubules).
The target of series [2] is human tubulin purified from HEK293 cells.

B1: recombinant SVBP-VASH2 complex (protein)
chain 1: not shown
chain 2: MDPPARKEKTKVKESVSRVEKAKQKSAQQELKQRQRAEIYALNRVMTELEQQQFDEFCKQMQPPGE
B1: the “detyrosination assay (western blot, relative optical density detyrosination/tubulin)” value is given as “SVBP-VASH2 complex strongly induced detyrosination in the assay” in series [1] and “the fold induction of the tubulin detyrosination resulting from SVBP-VASH2 complex was significantly lower with human tubulin purified from HEK293 cells in comparison to the one obtained using Sf9 cells extracted tubulin” in series [2].
